{
  "source": "patent US20240301038A1",
  "molecular_target": "SARS-CoV-2 Spike Receptor Binding Domain (RBD) (Sino Biological) (SARS-CoV-2), P0DTC2",
  "conditions": "remark: other sources report otherwise",
  "data": [
    {"binder": "AB-009620 (antibody, V domains shown) VH: QITLKESGPTLVKPTQTLTLTCTFSGFSLSTSGVGVGWIRQPPGKALEWLALIYWDDDKRYSPSLKSRLTITKDTSKNQVVLTMTNMDPVDTATYYCAHHEVATVFDYWGQGTLVTVSS VL: QSALTQPASVSGSPGQSITISCTGTSSDVGAYNYVSWYQQHPGKAPKLMIYEVSNRPSGVSNRFSGSKSGNTASLTISGLQAEDEADYYCSSYTSSSTVFGGGTKLTVL", "values": [
      {"measurement": "Kd", "result": 5.99, "unit": "nM"}
    ]}
  ]
}
